Experimental data from patent publication US20220372125A1 (ASLAN PHARMACEUTICALS PTE, published 2022).

Key:
[1] = biological target: T1, Mammalian expressed extracellular human RON protein (Gly25 to Thr957) with His-tag (human, UniProt Q04912 25-957); assay: KinExA, RON-HIS
T1 construct: Expressed in ExpiCHO cells, purified on nickel; Position of the His-tag is told inconsistently; Written as one chain; also called RON ECD; RON ECD antigen; not shown: His-tag
T1 sequence: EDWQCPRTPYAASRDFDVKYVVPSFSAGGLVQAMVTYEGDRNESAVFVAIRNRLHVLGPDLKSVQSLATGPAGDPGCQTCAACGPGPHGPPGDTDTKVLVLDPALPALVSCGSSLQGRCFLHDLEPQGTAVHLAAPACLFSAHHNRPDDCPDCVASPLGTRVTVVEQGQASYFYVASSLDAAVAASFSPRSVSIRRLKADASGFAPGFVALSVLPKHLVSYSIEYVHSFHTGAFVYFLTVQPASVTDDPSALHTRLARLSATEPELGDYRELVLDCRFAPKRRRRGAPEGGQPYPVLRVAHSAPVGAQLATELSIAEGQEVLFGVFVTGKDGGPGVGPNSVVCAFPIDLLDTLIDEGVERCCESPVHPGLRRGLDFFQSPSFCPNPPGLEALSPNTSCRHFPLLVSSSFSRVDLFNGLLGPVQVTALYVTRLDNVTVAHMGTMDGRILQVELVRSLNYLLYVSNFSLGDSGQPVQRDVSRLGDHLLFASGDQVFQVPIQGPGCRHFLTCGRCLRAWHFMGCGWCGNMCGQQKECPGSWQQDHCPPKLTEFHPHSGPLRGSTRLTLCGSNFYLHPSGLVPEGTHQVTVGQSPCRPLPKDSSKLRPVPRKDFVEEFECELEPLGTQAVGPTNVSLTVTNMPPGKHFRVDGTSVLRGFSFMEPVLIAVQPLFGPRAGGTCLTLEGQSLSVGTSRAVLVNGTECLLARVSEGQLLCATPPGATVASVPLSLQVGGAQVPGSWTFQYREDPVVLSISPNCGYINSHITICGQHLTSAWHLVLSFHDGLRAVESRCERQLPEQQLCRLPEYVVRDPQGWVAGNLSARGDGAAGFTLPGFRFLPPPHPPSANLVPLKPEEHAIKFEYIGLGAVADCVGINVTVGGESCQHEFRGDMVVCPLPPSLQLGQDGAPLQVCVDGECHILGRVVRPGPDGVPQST

[2] = biological target: T1, Mammalian expressed extracellular human …; assay: KinExA, RON-HIS; 95% Confidence Level 1.05 x 105 to 1.61 x 105
[3] = biological target: T1, Mammalian expressed extracellular human …; assay: KinExA, apparent Kd, column 'Kd by Kinexa (nM)' [continued]
Description: Titration curves were generated using indicated fixed concentrations of extracellular RON antigens measured by calibration free concentration analysis (CFCA). Increasing concentrations of RON antibodies were titrated for measurement of binding. Apparent Kd values were determined from an average of the two curves and plotted in table shown.
This limitation of the SPR method for highly avid antibodies has been described previously and the use of kinetic exclusion assay has been proposed as a way to overcome this limitation allowing measurements in the sub nanomolar range. We employed the Kinetic Exclusion assay (KinEXa) method to measure the Kd values of all of the new antibodies using a fixed concentration of the recombinant mammalian expressed protein as the target antigen and a twelve-point dilution curve of each antibody. We dropped antibody 9F6, in this assay as it seemed less avid than the other antibodies in preliminary SPR binding assays. The remaining seven antibodies gave exactly accurate results in duplicate analysis (FIG. 6).
(§1) Mammalian produced recombinant extracellular His-tag RON protein was used for affinity measurements. Affinity determinations were carried out in the fixed antigen format. Antibodies were titrated as two-fold dilutions into a fixed concentration of RON antigen. RON protein was detected using mouse monoclonal to 6×His-Tag (Dylight@650, Thermo Fisher). All affinity measurements were carried out using the KinExa 4000 (Sapidyne Instruments).

[4] = biological target: T1, Mammalian expressed extracellular human …; assay: KinExA, RON-HIS; 95% Confidence Level 1.74 nM to 4.11 nM
Description: as §1

[5] = biological target: RON (Macrophage stimulating protein receptor), full length, on cells (human, UniProt Q04912 25-1400); assay: cell-based or functional assay
[6] = biological target: T1, Mammalian expressed extracellular human …; assay: KinExA, RON-HIS; 95% Confidence Level 2.24 x 106 to 4.45 x 106
[7] = biological target: T1, Mammalian expressed extracellular human …; assay: KinExA, RON-HIS; 95% Confidence Level 448.10 pM to 200.01 pM
Description: as §1

[8] = biological target: T1, Mammalian expressed extracellular human …; assay: KinExA, RON-HIS; 95% Confidence Level 9.65 x 105 to 1.60 x 106
[9] = biological target: T1, Mammalian expressed extracellular human …; assay: KinExA, RON-HIS; 95% Confidence Level 167.21 pM to 304.60 pM
Description: as §1

[10] = biological target: T1, Mammalian expressed extracellular human …; assay: KinExA, RON-HIS; 95% Confidence Level 2.68 x 105 to 3.10 x 105
[11] = biological target: T1, Mammalian expressed extracellular human …; assay: KinExA, RON-HIS; 95% Confidence Level 8.64 nM to 18.70 nM
Description: as §1

[12] = biological target: T1, Mammalian expressed extracellular human …; assay: KinExA, RON-HIS; 95% Confidence Level 2.30 x 106 to 2.74 x 106
[13] = biological target: T1, Mammalian expressed extracellular human …; assay: KinExA, RON-HIS; 95% Confidence Level 92.36 pM to 219.67 pM
Description: as §1

[14] = biological target: T1, Mammalian expressed extracellular human …; assay: KinExA, RON-HIS; 95% Confidence Level 2.55 x 105 to 2.81 x 105
[15] = biological target: T1, Mammalian expressed extracellular human …; assay: KinExA, RON-HIS; 95% Confidence Level 5.94 nM to 11.84 nM
Description: as §1

B1: 9F2 (antibody, V domains shown)
VH: QVKLQQSGPGLVAPSQSLSITCTVSGFSLTSYGVHWVRQPPGKGLEWLGVIWAGGTTNYNSALMSRLSISKDNSKSQVFLKMNSLQTDDTAMYYCASYDYDGYFDVWGAGTTVTVSS
VL: DIVLTQTTAIMSASPGEKVTMTCSASSSVSYIHWYQQKSSTSPKLWIYDTSKLASGVPGRFSGSGSGNSYSLTISSMEAEDVATYYCFQGNKYPLTFGAGTKLELK
notes: Mouse monoclonal antibody from a hybridoma; kappa light chain; also called Antibody 9F2; anti-RON antibody 9F2
B1 showed a koff [1] of 0.00353 s⁻¹, a kon [2] of 129000 M⁻¹ s⁻¹ and a Kd [3] of 2.7 nM. The Kd [4] was 2.74 nM.

B2: chimeric 10G1 (mouse Fab with human Fc backbone) (antibody, V domains shown)
VH: EVKLEQSGGGLVQPGGSRKLSCAASGFTFSSFGMHWVRQAPEKGLEWVAYISGGSGTFYYADTVKGRFTISRDNPKNTLFLQMTSLRSEDTAIYYCARSTTVLDYWGQGTTLTVSS
VL: DIVLTQTPSSMYAFLGERVTIICKASQDINNYLNWVQQKPGKAPKTLIYHADRLADGVPSRFSGSGSGQDYSLTISSLEYEDMGIYYCLQYDDFPPFTFGSGTKLEIK
B2 was tested, and the “EC50 of antibody dependent cellular cytotoxicity (xCELLigence, T47D targets, human NK cells, E:T 10:1)” value [5] was 0.003 nM.

B3: 3G4 (antibody, V domains shown)
VH: EVQLQESGPELVKPGTSVRISCKASGYTFTSYYMHWVKQRPGQGLEWIGYIYPGNVNTKYNEKFKGKATLTADKSSSTAYMQLSSLTSEDSAVYFCARLGYYRYGGAMDYWGQGTAVTVSS
VL: DIVLTQTPAILSVSPGERVSFSCRASQSIGTSIHWYQQRTNGSPRLLIKYASESISGIPSRFSGSGSGTDFTLRINSVESEDLADYYCQQSDSWPTTFGGGTKLEIKR
notes: Mouse monoclonal antibody from a hybridoma (supernatant or purified); kappa light chain; also called Antibody 3G4; anti-RON antibody 3G4
B3 was tested, and the kon [6] was 3.18e+06 M⁻¹ s⁻¹, the koff [1] was 0.000968 s⁻¹ and the “IC50 of inhibition of MSP induced ERK phosphorylation (AlphaLISA SureFire p-ERK, T47D cells)” value [5] was 68 nM. The Kd [3] was 0.3 nM and the Kd [7] was 0.305 nM.

B4: Narnatumab (antibody, V domains shown)
VH: EVQLVESGGGLVQPGGSLRLSCAASGFTFSSYLMTWVRQAPGKGLEWVANIKQDGSEKYYVDSVKGRFTISRDNAKNSLNLQMNSLRAEDTAVYYCTRDGYSSGRHYGMDVWGQGTTVIVSS
VL: EIVLTQSPATLSLSPGERATLSCRASQSVSRYLAWYQQKPGQAPRLLIYDASNRATGIPARFSGSGSGTDFTLTISSLEPEDFAVYYCQQRSNWPRTFGQGTKVEIK
For B4, the “IC50 of inhibition of MSP induced ERK phosphorylation (AlphaLISA SureFire p-ERK, T47D cells)” value [5] was 14.9 nM.

B5: 7H11 (antibody, V domains shown)
VH: EVKLEQSGPELVKPGASVKISCKASGYTFTDYNMHWVRQPPGQSLEWIGFIYPYNGNSGYNPNFKTKATLTMDISSSTAYMEVRNLTSEDSATYFCASLYYLGYFDVWGAGTTVTVSS
VL: DIVLTQSPVSLAVSLGQRATISCRASKSVSTSAYNFMHWYQQKPGQPPKLLIYLASNLESGVPARLSGSGSGTDFTLNIHPVEEEDAATYYCQHSRELPYTFGGGTKLEIKR
notes: Mouse monoclonal antibody from a hybridoma; kappa light chain; also called Antibody 7H11; anti-RON antibody 7H11
B5 gave a koff [1] of 0.000286 s⁻¹, a kon [8] of 1.25e+06 M⁻¹ s⁻¹ and a Kd [9] of 0.23 nM. It also gave a Kd [3] of 0.23 nM.

B6: 3F6 (antibody, V domains shown)
VH: EVKLEESGPGLVKPSQSLSLTCSVTGYSITSGYYWNWIRQFPGNKLEWMGFMSYDGSNNYNPSLKNRISITRDTSKNQFFLKLNSVTSEDTATYYCSRALAYYGNFDYWGQGTTLTVSS
VL: DIVLTQTPSSLSASLGDRVTISCSASQDISNYLNWYQQKPDGIVKLLIYYTSSLHSGVPSRFSGSGSGTDFSLTISNLEPEDIATYYCQQYNKLPWTFGGGTKLEIK
notes: Mouse monoclonal antibody from a hybridoma; kappa light chain; also called anti-RON antibody 3F6
B6 was tested, and the kon [10] was 270000 M⁻¹ s⁻¹, the Kd [3] was 13.4 nM and the Kd [11] was 13.4 nM.

B7: 3F8 (antibody, V domains shown)
VH: EVKLQESGGGLVQPGRSLKLSCVASGFTFSSFWMHWVRQSPEKGLEWVAEIRLKSNNYATHYAESVKGRFTISRDDSKSSVHLQMNNLRTEDTGIYYCIPPYYYTVDYWGQGTSVTVSS
VL: DIVLTQTPKVMSTSVGDRVSVTCKASQNVNTNVAWYQQKPGQSPKALIYSASSRYSGVPDRFTGSGSGTDFTLTISNVQSEDLADYFCQQYNTYPLTFAAGTKLELK
notes: Mouse monoclonal antibody from a hybridoma; kappa light chain; also called Antibody 3F8; anti-RON antibody 3F8
B7 was tested, and the koff [1] was 0.000358 s⁻¹, the Kd [3] was 0.15 nM and the kon [12] was 2.44e+06 M⁻¹ s⁻¹. The Kd [13] was 0.146 nM.

B8: 6A9 (antibody, V domains shown)
VH: EVKLEESGPGLLKPSQSLSLTCTVTGSSITSDYAWNWIRQFPGNKLEWMGYIGYSVGTSHNPSLKGRISITRDTSKNQFFLHLNSVTTEDTAIYYCARRPLYFYYAMDFWGQGTSVTVSS
VL: DIVLTQSPSSLSASLGDRVTITCRASQDISKYLNWYQQKPDGTVKLLIYYTSTLHSGVPSRFSGSGSGTDFSLTITNLEQEDIATYFCQQGNTLPRTFGGGTKLEIK
notes: Mouse monoclonal antibody from a hybridoma; kappa light chain; also called Antibody 6A9; anti-RON antibody 6A9
For B8, the koff [1] was 0.00228 s⁻¹, the Kd [3] was 8.6 nM and the kon [14] was 266000 M⁻¹ s⁻¹. The Kd [15] was 8.57 nM.
